Laboratory results as given in patent publication US20250320279A1, “UNGULATE-DERIVED POLYCLONAL IMMUNOGLOBULIN SPECIFIC FOR INFLUENZA VIRUS AND USES THEREOF” (priority 2021, published 2025).

Tests used:
Test in all cases: cell-based or functional assay
[1] = target: hemagglutinin (HA) of influenza B/Maryland/15/2016 B-Vic (Influenza B virus B/Maryland/15/2016 (B-Vic))
[2] = target: hemagglutinin (HA) of influenza B/Phuket/3073/2013 B-Yam (Influenza B virus B/Phuket/3073/2013 (B-Yam))
[3] = target: hemagglutinin (HA) of influenza B/Washington/02/2019 B-Vic (Influenza B virus B/Washington/02/2019)
[4] = target: hemagglutinin (HA) of influenza A/Guangdong-maonan/2019 (Egg) H1N1 (Influenza A virus A/Guangdong-maonan/2019 (H1N1), (Egg))
[5] = target: hemagglutinin (HA) of influenza B/California/12/2015 B-Yam (Influenza B virus B/California/12/2015)
[6] = target: hemagglutinin (HA) of influenza A/California/4/2009 pH1N1 (Influenza A virus A/California/4/2009 (pH1N1))
[7] = target: hemagglutinin (HA) of influenza A/Hong Kong/2671/2019 (Egg) H3N2 (Influenza A virus A/Hong Kong/2671/2019 (H3N2), (Egg))
[8] = target: hemagglutinin (HA) of influenza A/Singapore/INFIMH-16-0019/2016 H3N2 (Influenza A virus A/Singapore/INFIMH-16-0019/2016 (H3N2))
[9] = target: hemagglutinin (HA) of influenza A/Cambodia/e0826360/2020 (2021-22) H3N2 (Influenza A virus A/Cambodia/e0826360/2020 (H3N2))
[10] = target: hemagglutinin (HA) of influenza A/Victoria/2570/2019 (2021-22) H1N1 (Influenza A virus A/Victoria/2570/2019 (H1N1))
[11] = target: hemagglutinin (HA) of influenza A/Michigan/45/2015 pH1N1 (Influenza A virus A/Michigan/45/2015 (pH1N1))
[12] = target: hemagglutinin (HA) of influenza A/Guangdong-maonan/2019 (Cell) H1N1 (Influenza A virus A/Guangdong-maonan/2019 (H1N1), (Cell))
[13] = target: hemagglutinin (HA) of influenza A/Brisbane/02/2018 H1N1 (Influenza A virus A/Brisbane/02/2018 (H1N1))
[14] = target: hemagglutinin (HA) of influenza B/Colorado/06/2017 B-Vic (Influenza B virus B/Colorado/06/2017 (B-Vic))
[15] = target: hemagglutinin (HA) of influenza A/Kansas/14/2017 H3N2 (Influenza A virus A/Kansas/14/2017 (H3N2))
[16] = target: hemagglutinin (HA) of influenza A/Switzerland/9715293/2013 H3N2 (Influenza A virus A/Switzerland/9715293/2013 (H3N2))
[17] = target: hemagglutinin (HA) of influenza B/Brisbane/60/2008 B-Vic (Influenza B virus B/Brisbane/60/2008 (B-Vic))
[18] = target: hemagglutinin (HA) of influenza A/Hong Kong/4801/2014 H3N2 (Influenza A virus A/Hong Kong/4801/2014 (H3N2))

Substance | HAI titer (reciprocal dilution) [1] | HAI titer (reciprocal dilution) [2] | HAI titer (reciprocal dilution) [3] | HAI titer (reciprocal dilution) [4] | HAI titer (reciprocal dilution) [5] | HAI titer (Huber virus stock) (reciprocal dilution) [6] | HAI titer (hVIVO virus stock) (reciprocal dilution) [6] | HAI titer (reciprocal dilution) [7] | HAI titer (reciprocal dilution) [8] | HAI titer (reciprocal dilution) [9] | HAI titer (reciprocal dilution) [10] | HAI titer (reciprocal dilution) [11] | HAI titer (reciprocal dilution) [12] | HAI titer (reciprocal dilution) [13] | HAI titer (reciprocal dilution) [14] | HAI titer (reciprocal dilution) [15] | HAI titer (reciprocal dilution) [16] | HAI titer (reciprocal dilution) [17] | HAI titer (reciprocal dilution) [6] | HAI titer (reciprocal dilution) [18]
SAB-176 Lot 2 V3-V5 (antibody) | 256 | 256 | 128 | 512 | 128 | 512 | 1024 | 128 | 512 | 256 | 256 | 512 | 512 | 512 | 256 | 64 |  |  |  | 
SAB-176 Lot 4 V3-V12 (antibody) | 256 | 128 | 128 | 512 | 128 | 512 | 512 | 256 | 512 | 256 | 256 | 512 | 512 | 512 | 256 | 256 |  |  |  | 
SAB-176 Lot 3 V3-V12 (antibody) | 128 | 128 | 64 | 512 | 128 | 512 | 512 | 256 | 512 | 256 | 256 | 512 | 512 | 512 | 256 | 512 |  |  |  | 
negative control IgG (antibody) | < 1 | < 1 | < 1 | < 1 | < 1 | < 1 | < 1 | < 1 | < 1 | < 1 | < 1 | < 1 | < 1 | < 1 | < 1 | < 1 | < 1 | < 1 | < 1 | < 1
SAB-176 Lot 1 V3 (antibody) | 256 | 128 | 64 | 512 | 128 | 512 | 512 | 64 | 512 | 128 | 256 | 512 | 512 | 512 | 256 | 64 |  |  |  | 
